In patent publication US20210139581A1 (Alector, published 2021):

How the values were obtained:
[1] = target: T1, human CD33 (human, UniProt P20138 18-259, limits assumed); experiment: BLI (ForteBio), Fab 100 nM on immobilized CD33
T1 construct: Human CD33 immobilized on the BLI sensor tip or the BIAcore C1 chip; also called Siglec-3
Procedure: The affinities (KD) of the humanized antibodies for human CD33 were measured for each antibody by BioLayer Interferometry in a ForteBio assay according to standard techniques (Estep et al. (2013) MAbs 5(2): 270-8). […] The assay was carried out at room temperature.
The affinity parameters of two of the antibodies, 64.1.2 and 64.1.8, were measured in a separate experiment by BIAcore, where they were directly compared to the parental antibody, AB-64.1, the parental humanized antibody, AB-H64, and the Chimeric Ab.

[2] = target: human CD33 on primary human monocyte-derived dendritic cells (human, UniProt P20138 18-364); experiment: cell-based or functional assay
Sequence of human CD33 on primary human monocyte-derived dendritic cells (P20138 18-364): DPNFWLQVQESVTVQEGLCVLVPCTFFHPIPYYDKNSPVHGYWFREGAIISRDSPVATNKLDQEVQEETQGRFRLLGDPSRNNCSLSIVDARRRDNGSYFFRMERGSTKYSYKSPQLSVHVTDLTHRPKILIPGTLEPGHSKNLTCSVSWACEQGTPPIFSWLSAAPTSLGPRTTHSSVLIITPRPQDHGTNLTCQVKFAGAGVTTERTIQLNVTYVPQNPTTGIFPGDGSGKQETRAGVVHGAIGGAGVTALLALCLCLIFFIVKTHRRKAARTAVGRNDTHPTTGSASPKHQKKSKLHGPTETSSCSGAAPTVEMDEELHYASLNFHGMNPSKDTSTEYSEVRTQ

T1 sequence (P20138 18-259 limits assumed): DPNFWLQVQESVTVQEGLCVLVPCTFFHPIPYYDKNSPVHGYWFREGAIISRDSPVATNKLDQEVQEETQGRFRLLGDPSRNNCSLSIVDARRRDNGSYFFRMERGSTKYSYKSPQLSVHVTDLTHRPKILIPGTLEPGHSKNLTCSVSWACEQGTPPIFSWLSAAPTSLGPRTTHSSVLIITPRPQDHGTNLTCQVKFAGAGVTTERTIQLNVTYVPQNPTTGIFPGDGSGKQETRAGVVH

Kd [1] | Receptor downregulation (% remaining at 0.16 µg/mL antibody) [2] | Binder
1450 pM | 35.9% | AB-64.1.13 (antibody, V domains shown, Variant of AB-64.1) VH: QVQLVQSGAEVKKPGASVKISCKASGYTFTDYNLHWVRQAPGQGLEWIGFIYPSNVITGYAQKFQGRATLTVDTSTSTAYMELSSLRSEDTAVYYCARSDVDYFDYWGQGTLLTVSS VL: DIVLTQSPDSLAVSLGERATINCRASQSVSTSTYSYMHWYQQKPGQPPKLLIKYASNLESGVPDRFSGSGSGTDFTLTISSLQAEDVAVYYCQHSWEIPLTFGQGTKLEIK
1450 pM | 39.8% | AB-64.1.10 (antibody, V domains shown, Variant of AB-64.1) VH: QVQLVQSGAEVKKPGASVKISCKASGYTFTDYNLHWVRQAPGQGLEWIGFIYPSNRITGYAQKFQGRATLTVDTSTSTAYMELSSLRSEDTAVYYCARSDVDYFDYWGQGTLLTVSS VL: DIVLTQSPDSLAVSLGERATINCRASQSVSTSTYSYMHWYQQKPGQPPKLLIKYASNLESGVPDRFSGSGSGTDFTLTISSLQAEDVAVYYCQHSWEIPLTFGQGTKLEIK
743 pM | 38.4% | AB-64.1.14 (antibody, V domains shown, Variant of AB-64.1) VH: QVQLVQSGAEVKKPGASVKISCKASGYTFTDYNLHWVRQAPGQGLEWIGFIYPSNVITGYAQKFQGRATLTVDQSTSTAYMELSSLRSEDTAVYYCARSDVDYFDYWGQGTLLTVSS VL: DIVLTQSPDSLAVSLGERATINCRASQSVSTSTYSYMHWYQQKPGQPPKLLIKYASNLESGVPDRFSGSGSGTDFTLTISSLQAEDVAVYYCQHSWEIPLTFGQGTKLEIK
412 pM | 38.9% | AB-64.1.15 (antibody, V domains shown, Variant of AB-64.1) VH: QVQLVQSGAEVKKPGASVKISCKASGYTFTDYNLHWVRQAPGQGLEWIGFIYPSNVITGYAQKFQGRATLTVDNSASTAYMELSSLRSEDTAVYYCARSDVDYFDYWGQGTLLTVSS VL: DIVLTQSPDSLAVSLGERATINCRASQSVSTSTYSYMHWYQQKPGQPPKLLIKYASNLESGVPDRFSGSGSGTDFTLTISSLQAEDVAVYYCQHSWEIPLTFGQGTKLEIK

The remaining lines, values behind:

Binder | Kd [1] | Receptor downregulation (% remaining at 0.16 µg/mL antibody) [2]
AB-64.1.7 (antibody, V domains shown, Variant of AB-64.1) VH: QVQLVQSGAEVKKPGASVKISCKASGYTFTDYNLHWVRQAPGQGLEWIGFIYPSNGITGYAQKFQGRATLTVDNPTSTAYMELSSLRSEDTAVYYCARSDVDYFDYWGQGTLLTVSS VL: DIVLTQSPDSLAVSLGERATINCRASQSVSTSTYSYMHWYQQKPGQPPKLLIKYASNLESGVPDRFSGSGSGTDFTLTISSLQAEDVAVYYCQHSWEIPLTFGQGTKLEIK | 391 pM | 35.9%
AB-64.1.11 (antibody, V domains shown, Variant of AB-64.1) VH: QVQLVQSGAEVKKPGASVKISCKASGYTFTDYNLHWVRQAPGQGLEWIGFIYPSNRITGYAQKFQGRATLTVDQSTSTAYMELSSLRSEDTAVYYCARSDVDYFDYWGQGTLLTVSS VL: DIVLTQSPDSLAVSLGERATINCRASQSVSTSTYSYMHWYQQKPGQPPKLLIKYASNLESGVPDRFSGSGSGTDFTLTISSLQAEDVAVYYCQHSWEIPLTFGQGTKLEIK | 1150 pM | 38.6%
AB-64.1.9 (antibody, V domains shown, Variant of AB-64.1) VH: QVQLVQSGAEVKKPGASVKISCKASGYTFTDYNLHWVRQAPGQGLEWIGFIYPSNQITGYAQKFQGRATLTVDNPTSTAYMELSSLRSEDTAVYYCARSDVDYFDYWGQGTLLTVSS VL: DIVLTQSPDSLAVSLGERATINCRASQSVSTSTYSYMHWYQQKPGQPPKLLIKYASNLESGVPDRFSGSGSGTDFTLTISSLQAEDVAVYYCQHSWEIPLTFGQGTKLEIK | 1060 pM | 37.4%
AB-64.1.12 (antibody, V domains shown, Variant of AB-64.1) VH: QVQLVQSGAEVKKPGASVKISCKASGYTFTDYNLHWVRQAPGQGLEWIGFIYPSNRITGYAQKFQGRATLTVDNSASTAYMELSSLRSEDTAVYYCARSDVDYFDYWGQGTLLTVSS VL: DIVLTQSPDSLAVSLGERATINCRASQSVSTSTYSYMHWYQQKPGQPPKLLIKYASNLESGVPDRFSGSGSGTDFTLTISSLQAEDVAVYYCQHSWEIPLTFGQGTKLEIK | 922 pM | 38.5%
